Experimental data taken from patent US20220389118A1 (Chugai, published 2022).
Where two headings read alike, the source gives them in different places.

T1: human FcγRIIa type R (allotype R131) extracellular domain with C-terminal His tag (human, UniProt P12318 34-217)
T1 construct: extracellular domain; also called FcγRIIaR; FcγRIIa R type; not shown: His tag at the C terminus
T1 sequence (looked up): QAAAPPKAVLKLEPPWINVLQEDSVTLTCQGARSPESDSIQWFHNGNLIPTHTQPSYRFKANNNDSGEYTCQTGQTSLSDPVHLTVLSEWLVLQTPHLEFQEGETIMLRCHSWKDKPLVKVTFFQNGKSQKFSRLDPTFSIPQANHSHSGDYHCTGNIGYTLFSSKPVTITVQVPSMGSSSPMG

T2: human FcγRIIa type H (allotype H131) extracellular domain with C-terminal His tag (human, UniProt P12318 34-217)
T2 construct: extracellular domain; also called FcγRIIaH; FcγRIIa H type; not shown: His tag at the C terminus
T2 sequence (looked up): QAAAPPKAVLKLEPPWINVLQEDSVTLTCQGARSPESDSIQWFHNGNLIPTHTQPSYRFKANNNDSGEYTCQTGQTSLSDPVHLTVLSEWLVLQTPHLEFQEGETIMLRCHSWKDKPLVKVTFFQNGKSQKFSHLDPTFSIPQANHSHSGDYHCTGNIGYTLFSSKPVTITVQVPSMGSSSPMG

T3: human FcγRIIb extracellular domain with C-terminal His tag (human, UniProt P31994 43-217)
T3 construct: extracellular domain; not shown: His tag at the C terminus
T3 sequence (looked up): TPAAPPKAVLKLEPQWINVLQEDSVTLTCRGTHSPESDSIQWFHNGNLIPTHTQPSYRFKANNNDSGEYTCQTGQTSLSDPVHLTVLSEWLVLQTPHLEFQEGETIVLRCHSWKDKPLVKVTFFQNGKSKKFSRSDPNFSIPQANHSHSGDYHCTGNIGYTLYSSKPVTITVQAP

T4: human FcγRIIb extracellular domain with C-terminal His tag (human, UniProt P31994 43-217)
T4 construct: extracellular domain; not shown: His tag at the C terminus
T4 sequence (looked up): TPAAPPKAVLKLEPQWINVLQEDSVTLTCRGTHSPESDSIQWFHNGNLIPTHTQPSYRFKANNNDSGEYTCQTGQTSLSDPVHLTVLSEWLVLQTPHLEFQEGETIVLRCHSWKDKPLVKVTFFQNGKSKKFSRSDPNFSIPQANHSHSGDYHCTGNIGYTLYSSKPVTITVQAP

T5: human FcγRIIa type R (R131) extracellular domain with C-terminal His tag (human, UniProt P12318 34-217)
T5 construct: extracellular domain; also called FcγRIIaR; not shown: His tag at the C terminus
T5 sequence (looked up): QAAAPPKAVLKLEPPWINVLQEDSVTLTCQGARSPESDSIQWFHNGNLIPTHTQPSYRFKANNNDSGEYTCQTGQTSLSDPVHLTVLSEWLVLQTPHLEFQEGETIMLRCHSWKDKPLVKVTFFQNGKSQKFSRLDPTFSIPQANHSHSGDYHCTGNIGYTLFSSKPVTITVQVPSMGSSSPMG


What was measured:
Assay in all cases: SPR (Biacore), antibody captured, FcγR analyte
[1] = target: T6, human FcγRIIIa type V (allotype V158) extracellular domain with C-terminal His tag (human, UniProt P08637 17-208)
T6 construct: extracellular domain; also called FcγRIIIaV; FcγRIIIa V type; not shown: His tag at the C terminus
T6 sequence (P08637 17-208 F176V): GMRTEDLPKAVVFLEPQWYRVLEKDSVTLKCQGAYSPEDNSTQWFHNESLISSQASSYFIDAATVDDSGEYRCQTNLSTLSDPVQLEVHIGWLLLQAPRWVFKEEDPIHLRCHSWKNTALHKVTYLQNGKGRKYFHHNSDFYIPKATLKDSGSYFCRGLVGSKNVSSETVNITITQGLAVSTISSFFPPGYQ

[2] = target: T1, human FcγRIIa type R (allotype R131) …
[3] = target: T2, human FcγRIIa type H (allotype H131) …
[4] = target: T3, human FcγRIIb extracellular domain with …
[5] = target: T4, human FcγRIIb extracellular domain with …; remark: listed apart in the source
[6] = target: T5, human FcγRIIa type R (R131) …
[7] = target: T7, human FcγRIa extracellular domain with C-terminal His tag (human, UniProt P12314 16-292)
T7 construct: not shown: His tag at the C terminus
T7 sequence (P12314 16-292): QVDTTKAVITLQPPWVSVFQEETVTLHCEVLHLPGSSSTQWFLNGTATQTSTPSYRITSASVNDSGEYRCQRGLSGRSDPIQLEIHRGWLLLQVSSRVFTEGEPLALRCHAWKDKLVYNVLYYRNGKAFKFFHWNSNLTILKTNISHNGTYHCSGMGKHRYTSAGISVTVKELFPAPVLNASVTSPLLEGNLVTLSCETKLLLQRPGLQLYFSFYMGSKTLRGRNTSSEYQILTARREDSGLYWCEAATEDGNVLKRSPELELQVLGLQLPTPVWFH

[8] = target: T8, human FcγRIa extracellular domain with C-terminal His tag (human, UniProt P12314 16-292); remark: listed apart in the source
T8 construct: not shown: His tag at the C terminus
T8 sequence (P12314 16-292): as above

| Binder | Kd [1] [nM] | Kd [2] [nM] | Kd [3] [nM] | Kd [5] [nM] | further results |
| --- | --- | --- | --- | --- | --- |
| IL6R-BP184/IL6R-L (antibody, human IgG1, kappa, copies: 2 + 2) heavy: QVQLQESGPGLVKPSETLSLTCAVSGHSISHDHAWSWVRQPPGEGLEWIGFISYSGITNYNPSLQGRVTISRDNSKNTLYLQMNSLRAEDTAVYYCARSLARTTAMDYWGEGTLVTVSSASTKGPSVFPLAPSSKSTSGGTAALGCLVKDYFPEPVTVSWNSGALTSGVHTFPAVLQSSGLYSLSSVVTVPSSSLGTQTYICNVNHKPSNTKVDKKVEPKSCDKTHTCPPCPAPDLLGGDSVFLFPPKPKDTLMISRTPEVTCVVVDVSHEDGEVKFNWYVDGVEVHNAKTKPREEQYNSTYRVVSVLTVLHQDWLNGKEYKCKVSNKALPKPIEKTISKAKGQPREPQVYTLPPSRDELTKNQVSLTCLVKGFYPSDIAVEWESNGQPENNYKTTPPVLDSDGSFFLYSKLTVDKSRWQQGNVFSCSVMHEALHNHYTQESLSLSP light: not shown | 66000 | 2300 | 30000 | – | – |
| IL6R-BP195/IL6R-L (antibody, human IgG1, kappa, copies: 2 + 2) heavy: QVQLQESGPGLVKPSETLSLTCAVSGHSISHDHAWSWVRQPPGEGLEWIGFISYSGITNYNPSLQGRVTISRDNSKNTLYLQMNSLRAEDTAVYYCARSLARTTAMDYWGEGTLVTVSSASTKGPSVFPLAPSSKSTSGGTAALGCLVKDYFPEPVTVSWNSGALTSGVHTFPAVLQSSGLYSLSSVVTVPSSSLGTQTYICNVNHKPSNTKVDKKVEPKSCDKTHTCPPCPAPDYLGDDSVFLFPPKPKDTLMISRTPEVTCVVVDVSDEDGEVKFNWYVDGVEVHNAKTKPREEQDNSTYRVVSVLTVLHQDWLNGKEYKCKVSNAALPKPIEKTISKAKGQPREPQVYTLPPSRDELTKNQVSLTCLVKGFYPSDIAVEWESNGQPENNYKTTPPVLDSDGSFFLYSKLTVDKSRWQQGNVFSCSVMHEALHNHYTQESLSLSP light: not shown | 31000 | 910 | 10000 | – | Kd [4]: 50 nM |
| IL6R-BP202/IL6R-L (antibody, human IgG1, kappa, copies: 2 + 2) heavy: QVQLQESGPGLVKPSETLSLTCAVSGHSISHDHAWSWVRQPPGEGLEWIGFISYSGITNYNPSLQGRVTISRDNSKNTLYLQMNSLRAEDTAVYYCARSLARTTAMDYWGEGTLVTVSSASTKGPSVFPLAPSSKSTSGGTAALGCLVKDYFPEPVTVSWNSGALTSGVHTFPAVLQSSGLYSLSSVVTVPSSSLGTQTYICNVNHKPSNTKVDKKVEPKSCDKTHTCPPCPAPELLGDDSVFLFPPKPKDTLMISRTPEVTCVVVDVSHEDGEVKFNWYVDGVEVHNAKTKPREEQYNSTYRVVSVLTVLHQDWLNGKEYKCKVSNAALPRPIEKTISKAKGQPREPQVYTLPPSRDELTKNQVSLTCLVKGFYPSDIAVEWESNGQPENNYKTTPPVLDSDGSFFLYSKLTVDKSRWQQGNVFSCSVMHEALHNHYTQESLSLSP light: not shown | – | – | 9200 | – | Kd [8]: 95 nM |
| IL6R-BP208/IL6R-L (antibody, human IgG1, kappa, copies: 2 + 2) heavy: QVQLQESGPGLVKPSETLSLTCAVSGHSISHDHAWSWVRQPPGEGLEWIGFISYSGITNYNPSLQGRVTISRDNSKNTLYLQMNSLRAEDTAVYYCARSLARTTAMDYWGEGTLVTVSSASTKGPSVFPLAPSSKSTSGGTAALGCLVKDYFPEPVTVSWNSGALTSGVHTFPAVLQSSGLYSLSSVVTVPSSSLGTQTYICNVNHKPSNTKVDKKVEPKSCDKTHTCPPCPAPDLLGDDSVFLFPPKPKDTLMISRTPEVTCVVVDVSDEDGEVKFNWYVDGVEVHNAKTKPREEQYNSTYRVVSVLTVLHQDWLNGKEYKCKVSNKALPRPIEKTISKAKGQPREPQVYTLPPSRDELTKNQVSLTCLVKGFYPSDIAVEWESNGQPENNYKTTPPVLDSDGSFFLYSKLTVDKSRWQQGNVFSCSVMHEALHNHYTQESLSLSP light: not shown | 53000 | 850 | 8300 | – | – |

Further lines, with some results ahead:

| Kd [1] [nM] | Kd [2] [nM] | Kd [3] [nM] | Kd [5] [nM] | Binder | further results |
| --- | --- | --- | --- | --- | --- |
| – | – | – | 17 | IL6R-BP545/IL6R-L (antibody, human IgG1, kappa, D356E introduced into IL6R-BP230; copies: 2 + 2) heavy: QVQLQESGPGLVKPSETLSLTCAVSGHSISHDHAWSWVRQPPGEGLEWIGFISYSGITNYNPSLQGRVTISRDNSKNTLYLQMNSLRAEDTAVYYCARSLARTTAMDYWGEGTLVTVSSASTKGPSVFPLAPSSKSTSGGTAALGCLVKDYFPEPVTVSWNSGALTSGVHTFPAVLQSSGLYSLSSVVTVPSSSLGTQTYICNVNHKPSNTKVDKKVEPKSCDKTHTCPPCPAPDLLGDDSVFLFPPKPKDTLMISRTPEVTCVVVDVSDEDGEVKFNWYVDGVEVHNAKTKPREEQDNSTYRVVSVLTVLHQDWLNGKEYKCKVSNKALPRPIEKTISKAKGQPREPQVYTLPPSREELTKNQVSLTCLVKGFYPSDIAVEWESNGQPENNYKTTPPVLDSDGSFFLYSKLTVDKSRWQQGNVFSCSVMHEALHNHYTQESLSLSP light: not shown | Kd [6]: 570 nM |
| – | – | – | 18 | IL6R-BP230/IL6R-L (antibody, human IgG1, kappa, copies: 2 + 2) heavy: QVQLQESGPGLVKPSETLSLTCAVSGHSISHDHAWSWVRQPPGEGLEWIGFISYSGITNYNPSLQGRVTISRDNSKNTLYLQMNSLRAEDTAVYYCARSLARTTAMDYWGEGTLVTVSSASTKGPSVFPLAPSSKSTSGGTAALGCLVKDYFPEPVTVSWNSGALTSGVHTFPAVLQSSGLYSLSSVVTVPSSSLGTQTYICNVNHKPSNTKVDKKVEPKSCDKTHTCPPCPAPDLLGDDSVFLFPPKPKDTLMISRTPEVTCVVVDVSDEDGEVKFNWYVDGVEVHNAKTKPREEQDNSTYRVVSVLTVLHQDWLNGKEYKCKVSNKALPRPIEKTISKAKGQPREPQVYTLPPSRDELTKNQVSLTCLVKGFYPSDIAVEWESNGQPENNYKTTPPVLDSDGSFFLYSKLTVDKSRWQQGNVFSCSVMHEALHNHYTQESLSLSP light: not shown | Kd [7]: 10 nM |
| – | – | – | 19 | IL6R-BP547/IL6R-L (antibody, human IgG1, kappa, K409R introduced into IL6R-BP230; copies: 2 + 2) heavy: QVQLQESGPGLVKPSETLSLTCAVSGHSISHDHAWSWVRQPPGEGLEWIGFISYSGITNYNPSLQGRVTISRDNSKNTLYLQMNSLRAEDTAVYYCARSLARTTAMDYWGEGTLVTVSSASTKGPSVFPLAPSSKSTSGGTAALGCLVKDYFPEPVTVSWNSGALTSGVHTFPAVLQSSGLYSLSSVVTVPSSSLGTQTYICNVNHKPSNTKVDKKVEPKSCDKTHTCPPCPAPDLLGDDSVFLFPPKPKDTLMISRTPEVTCVVVDVSDEDGEVKFNWYVDGVEVHNAKTKPREEQDNSTYRVVSVLTVLHQDWLNGKEYKCKVSNKALPRPIEKTISKAKGQPREPQVYTLPPSRDELTKNQVSLTCLVKGFYPSDIAVEWESNGQPENNYKTTPPVLDSDGSFFLYSRLTVDKSRWQQGNVFSCSVMHEALHNHYTQESLSLSP light: not shown | Kd [7]: 12 nM |
| 41000 | – | 10000 | – | IL6R-BP209/IL6R-L (antibody, human IgG1, kappa, copies: 2 + 2) heavy: QVQLQESGPGLVKPSETLSLTCAVSGHSISHDHAWSWVRQPPGEGLEWIGFISYSGITNYNPSLQGRVTISRDNSKNTLYLQMNSLRAEDTAVYYCARSLARTTAMDYWGEGTLVTVSSASTKGPSVFPLAPSSKSTSGGTAALGCLVKDYFPEPVTVSWNSGALTSGVHTFPAVLQSSGLYSLSSVVTVPSSSLGTQTYICNVNHKPSNTKVDKKVEPKSCDKTHTCPPCPAPELLGDDSVFLFPPKPKDTLMISRTPEVTCVVVDVSDEDGEVKFNWYVDGVEVHNAKTKPREEQYNSTYRVVSVLTVLHQDWLNGKEYKCKVSNAALPRPIEKTISKAKGQPREPQVYTLPPSRDELTKNQVSLTCLVKGFYPSDIAVEWESNGQPENNYKTTPPVLDSDGSFFLYSKLTVDKSRWQQGNVFSCSVMHEALHNHYTQESLSLSP light: not shown | Kd [8]: 39 nM; Kd [4]: 51 nM |
